The source of these data is patent US20230406935A1 (F STAR THERAPEUTICS, published 2023).

Assay [1] has as its target T1, Human PD-1 expressed on HEK 293 cells (human, UniProt Q15116 25-288).
T1 construct: also called hPD-1
The assay is described as follows: flow cytometry on HEK 293 cells. (A flow cytometer gives signals particle by particle.)

Assay [2] concerns the target T2, Mouse CD80 expressed on HEK 293 cells (mouse, UniProt Q00609 38-306).
T2 sequence: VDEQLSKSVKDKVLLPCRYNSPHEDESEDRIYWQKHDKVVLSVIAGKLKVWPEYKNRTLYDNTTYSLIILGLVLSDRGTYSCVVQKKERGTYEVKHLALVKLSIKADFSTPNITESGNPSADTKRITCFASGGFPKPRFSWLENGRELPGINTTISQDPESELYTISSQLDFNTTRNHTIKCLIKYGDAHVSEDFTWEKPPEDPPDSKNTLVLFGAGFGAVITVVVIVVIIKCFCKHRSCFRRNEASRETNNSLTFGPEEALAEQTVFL
The assay is described as follows: flow cytometry on HEK 293 cells.

Assay [3] concerns the target Mouse PD-L1 expressed on HEK 293 cells (mouse, UniProt Q9EP73 19-290). Put plainly: flow cytometry on HEK 293 cells.
For assay [4], the target named is T3, Human CD80 expressed on HEK 293 cells (human, UniProt P33681 35-288).
T3 construct: also called hCD80
T3 sequence: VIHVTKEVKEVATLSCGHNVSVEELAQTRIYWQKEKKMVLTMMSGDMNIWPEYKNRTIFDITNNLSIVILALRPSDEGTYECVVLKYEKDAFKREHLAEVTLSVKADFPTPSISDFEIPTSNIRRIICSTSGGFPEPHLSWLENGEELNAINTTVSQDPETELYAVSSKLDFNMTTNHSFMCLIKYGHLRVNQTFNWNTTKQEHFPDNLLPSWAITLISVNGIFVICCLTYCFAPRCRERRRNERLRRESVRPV
The assay is described as follows: flow cytometry on HEK 293 cells.

The target of assay [5] is T4, Recombinant mouse PD-L1 with a C-terminal human IgG tag (R&D Systems, 1019-B7), biotinylated (mouse, UniProt Q9EP73 19-238).
T4 construct: also called mouse PD-L1 Fc
T4 sequence (Q9EP73 19-238 limits assumed): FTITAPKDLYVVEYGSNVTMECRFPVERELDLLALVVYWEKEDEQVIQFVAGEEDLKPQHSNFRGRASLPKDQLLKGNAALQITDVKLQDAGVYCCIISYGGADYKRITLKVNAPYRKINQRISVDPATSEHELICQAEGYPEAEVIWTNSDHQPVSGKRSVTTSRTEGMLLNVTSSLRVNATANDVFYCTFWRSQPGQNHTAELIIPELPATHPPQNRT
The assay is described as follows: SPR BIAcore 3000, mouse PD-L1 Fc on streptavidin chip. On the technique in general: SPR reads the build-up and loss of mass on a sensor chip optically.

T1 sequence (Q15116 25-288 limits assumed): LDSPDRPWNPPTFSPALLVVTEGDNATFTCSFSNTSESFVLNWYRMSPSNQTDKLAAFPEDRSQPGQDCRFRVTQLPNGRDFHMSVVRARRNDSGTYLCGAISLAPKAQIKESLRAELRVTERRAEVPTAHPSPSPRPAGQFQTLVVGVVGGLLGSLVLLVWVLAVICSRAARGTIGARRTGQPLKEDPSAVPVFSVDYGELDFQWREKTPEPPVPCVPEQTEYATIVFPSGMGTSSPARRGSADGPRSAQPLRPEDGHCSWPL
Mouse PD-L1 expressed on HEK 293 cells, sequence (Q9EP73 19-290 limits assumed): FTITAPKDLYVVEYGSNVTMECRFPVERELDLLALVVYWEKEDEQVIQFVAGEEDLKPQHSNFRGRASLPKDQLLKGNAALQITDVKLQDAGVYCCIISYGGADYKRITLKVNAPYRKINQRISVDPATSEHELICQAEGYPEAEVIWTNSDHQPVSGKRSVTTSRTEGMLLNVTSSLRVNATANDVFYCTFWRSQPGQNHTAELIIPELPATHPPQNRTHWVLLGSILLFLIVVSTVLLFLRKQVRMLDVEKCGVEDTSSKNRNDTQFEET

B1: Fcab FS17-33 (Example 1, soluble Fcab with truncated hinge) (designed binder)
chain: TCPPCPAPELLGGPSVFLFPPKPKDTLMISRTPEVTCVVVDVSHEDPEVKFNWYVDGVEVHNAKTKPREEQYNSTYRVVSVLTVLHQDWLNGKEYKCKVSNKALPAPIEKTISKAKGQPREPQVYTLPPSRDEQSGYWVSLTCLVKGFYPSDIAVEWESNGQPENNYKTTPPVLDSDGSFFLYSKLTVSNWRWQMGDFSCSVMHEALHNHYTQKSLSLSPGK
With B1, the binding result in assay [1] is on record as “no binding (tested: 1 µM)”; in assay [2] it was “no binding (tested: 1 µM)”; in assay [3] it was “no binding (tested: 1 µM)”; in assay [4], “no binding (tested: 1 µM)”; in assay [5], “no binding”.
